Stoichiometry N data for one substance are collected here from publication PMC2914828.

For the assay, the target named is alternative complex III (ACIII) subunit s5 (Chloroflexus aurantiacus strain J-10-fl (endogenous)). The assay is described as follows: cross-linking.

On to “alternative complex III (ACIII) subunit s5 (natural protein)”, for which the stoichiometry N (commonly a count of units in the complex or per binding partner) is 2.
